Residue numbers refer to the chain shown, from its start. Names may count otherwise. One block for each molecule: values may come before it.
Assays:
[1] = molecular target: Signal peptide CD28, Stalk CD8α; assay: flow cytometry of T cells nucleofected with the CAR construct, Day 1, Protein L-biotin + SA-APC against CD3-FITC; the filing reports it as CAR surface expression (legend: the short CD8α stalk does not permit surface expression)
[2] = molecular target: Signal peptide CD8α, Stalk CD8α; assay: as above
[3] = molecular target: Signal peptide Ig Kappa, Stalk CD8α; assay: as above
[4] = molecular target: Signal peptide mIgVH, Stalk CD8α; assay: as above
[5] = molecular target: Extracellular domain (ECD) of ROR1 fused to human Fc region (UniProt Q01973); assay: SPR, Biacore 3000; ROR1 ECD-human Fc on CM5 chip, antibody in solution; ROR1 ECD-human Fc on the chip per paragraph 451; same number stands under ROR1-His in Table 9
[6] = molecular target: T1, ROR1-His (UniProt Q01973 30-403, limits assumed); assay: ROR1-His affinity of the construct's binding domain; method not given
T1 construct: The construct is described nowhere; not shown: His tag

[7] = molecular target: Extracellular domain (ECD) of ROR1 fused to human Fc region (UniProt Q01973); assay: ROR1-Fc affinity of the construct's binding domain; method not given
[8] = molecular target: T2, Extracellular domain (ECD) of ROR1 fused to human Fc region (UniProt Q01973 30-406, limits assumed); assay: SPR, Biacore 3000; ROR1 ECD-human Fc on CM5 chip, antibody in solution
T2 construct: extracellular domain; also called ROR1-Fc; ROR1-FC; not shown: human Fc region
Description: Different concentrations of humanized antibodies were injected in solution phase and data was analyzed using BIAevaluation to calculate Kd of the antibodies.

[9] = molecular target: Extracellular domain (ECD) of ROR1 fused to human Fc region (UniProt Q01973); assay: as above
[10] = molecular target: T1, ROR1-His; assay: ROR1-His affinity of the construct's binding domain; method not given; ROR1-His column, not ROR1-Fc (2.31E-08)

T2 sequence (Q01973 30-406 limits assumed): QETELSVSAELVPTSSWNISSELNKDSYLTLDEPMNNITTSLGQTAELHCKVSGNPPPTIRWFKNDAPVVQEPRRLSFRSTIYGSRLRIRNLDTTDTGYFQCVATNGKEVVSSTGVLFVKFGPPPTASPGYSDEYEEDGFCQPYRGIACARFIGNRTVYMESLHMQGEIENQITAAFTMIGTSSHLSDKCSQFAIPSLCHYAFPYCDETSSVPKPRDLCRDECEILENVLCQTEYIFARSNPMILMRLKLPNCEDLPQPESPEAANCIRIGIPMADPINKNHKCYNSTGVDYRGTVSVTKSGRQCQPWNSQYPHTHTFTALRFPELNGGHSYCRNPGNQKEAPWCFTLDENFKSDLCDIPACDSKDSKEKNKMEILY
Chain of Extracellular domain (ECD) of ROR1 fused to human Fc region (UniProt Q01973) (Q01973 30-406 limits assumed): as above
T1 sequence (Q01973 30-403 limits assumed): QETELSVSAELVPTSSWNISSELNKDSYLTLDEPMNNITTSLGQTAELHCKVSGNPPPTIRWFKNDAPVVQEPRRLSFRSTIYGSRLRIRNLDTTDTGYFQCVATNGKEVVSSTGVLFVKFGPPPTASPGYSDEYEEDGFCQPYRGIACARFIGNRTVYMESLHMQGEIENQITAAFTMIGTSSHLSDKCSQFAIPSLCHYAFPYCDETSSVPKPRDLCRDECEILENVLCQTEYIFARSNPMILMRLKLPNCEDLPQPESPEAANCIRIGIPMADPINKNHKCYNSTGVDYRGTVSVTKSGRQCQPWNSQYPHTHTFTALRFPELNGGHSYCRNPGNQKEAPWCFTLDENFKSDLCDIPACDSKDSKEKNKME

fraction in quadrant Q6 (Protein L-biotin-SA-APC+, CD3-FITC+) [1]: 2.6
fraction in quadrant Q6 (Protein L-biotin-SA-APC+, CD3-FITC+) [2]: 1.88
fraction in quadrant Q6 (Protein L-biotin-SA-APC+, CD3-FITC+) [3]: 2.53
fraction in quadrant Q6 (Protein L-biotin-SA-APC+, CD3-FITC+) [4]: 2.13
Molecule: Protein L-biotin

Kd [5]: 0.355 nM
Kd [6]: 0.355 nM
Kd [7]: 0.193 nM
B1: Hum ROR1_05VH_(G4S)3x_VL_14 (antibody, mouse IgG1, V domains shown)
VH: EVQLVESGGGLVQPGGSLRLSCAASGFTFSSYAMSWVRQAPGKGLEWVSSISRGGTTYYPDSVKGRFTISRDNSKNTLYLQMNSLRAEDTAVYYCGRYDYDGYYAMDYWGQGTLVTVSS
VL: DIQMTQSPSSLSASVGDRVTITCKASPDINSYLNWYQQKPGKAPKLLIYRANRLVDGVPSRFSGSGSGTDYTLTISSLQPEDFATYYCLQYDEFPYTFGAGTKVEIK
notes: The name reads as an scFv with a (G4S)3 linker; The method text says variable regions were fused to mouse constant regions (chimeric mouse IgG1); VH/VL are tied by the numbers in the name

Kd [8]: ~90 nM
B2: Clone 07 (antibody, V domains shown)
VH: B1 VH with M34I, S35I, S49A, S50R, Y58R, P60A, R71A, N73T, N76E, L78A
VL: B1 VL with K24R, L33V, N34A, R53F, V55E, D56S, G66R, Y71F, A100Q
notes: Variable regions fused to mouse constant regions (chimeric mouse IgG1 mAb) for SPR; also called hROR1 VH_07 / hROR1 VL_07

Kd [8]: 1.6 nM
B3: Hum ROR1_18VH_(G4S)3x_VL_16 (antibody, mouse IgG1, V domains shown)
VH: EVQLVESGGGLVQPGGSLRLSCSASGFTFSSYAMSWVRQVPGKGLVWISSISRGGTTYYADSVRGRFIISRDNAKNTLYLEMNNLRGEDTAVYYCARYDYDGYYAMDYWGQGTLVTVSS
VL: B1 VL with L46V, A100Q
notes: as for B1

Kd [8]: 11.7 nM
B4: Hum ROR1_07VH_(G4S)3x_VL_18 (antibody, mouse IgG1, V domains shown)
VH: B1 VH with M34I, S35I, S49A, S50R, Y58R, P60A, R71A, N73T, N76E, L78A
VL: DIQLTQSPDSLAVSLGERATINCKASPDINSYLSWYQQRPGQPPRLLIHRANRLVDGVPDRFSGSGFGTDFTLTITSLQAEDVAIYYCLQYDEFPYTFGQGTKLEIK
notes: as for B1

Kd [8]: 3.87 nM
B5: Hum ROR1_18VH_(G4S)3x_VL_07 (antibody, mouse IgG1, V domains shown)
VH: B3 VH
VL: B1 VL with K24R, L33V, N34A, R53F, V55E, D56S, G66R, Y71F, A100Q
notes: as for B1

Kd [6]: 0.372 nM
Kd [9]: 0.372 nM
Kd [7]: 0.271 nM
B6: Hum ROR1_18VH_(G4S)3x_VL_04 (antibody, mouse IgG1, V domains shown)
VH: B3 VH
VL: B1 VL with K24Q, R53N, V55E, D56T, Y71F, F83I, A100Q, V104L
notes: as for B1

Kd [8]: 7.16 nM
B7: Hum ROR1_07VH_(G4S)3x_VL_05 (antibody, mouse IgG1, V domains shown)
VH: B1 VH with M34I, S35I, S49A, S50R, Y58R, P60A, R71A, N73T, N76E, L78A
VL: B1 VL with N34S, Y71F, F83I, A100Q, V104L
notes: as for B1

Kd [8]: 131 nM
B8: Hum ROR1_14VH_(G4S)3x_VL_16 (antibody, mouse IgG1, V domains shown)
VH: B1 VH with A24T, V37M, S49A, P60A, R71V, N73K
VL: B1 VL with L46V, A100Q
notes: as for B1

Kd [6]: 1.45 nM
Kd [9]: 1.45 nM
B9: Clone 14 (antibody, V domains shown)
VH: B1 VH with A24T, V37M, S49A, P60A, R71V, N73K
VL: B1 VL
notes: Variable regions fused to mouse constant regions (chimeric mouse IgG1 mAb) for SPR; also called hROR1 VH_14 / hROR1 VL_14

Kd [6]: 0.209 nM
Kd [9]: 0.209 nM
Kd [7]: 0.201 nM
B10: Hum ROR1_18VH_(G4S)3x_VL_14 (antibody, mouse IgG1, V domains shown)
VH: B3 VH
VL: B1 VL
notes: as for B1

Kd [8]: 4.52 nM
B11: Hum_design_14_variant5 (antibody, V domains shown)
VH: B1 VH with A24T, V37M, Q39K, W47Y, S49A, P60A, R71V, N73K
VL: B1 VL
notes: Variable regions fused to mouse constant regions (chimeric mouse IgG1 mAb) for SPR; also called hROR1 VH_14-5 / hROR1 VL_14-5

Kd [8]: ~55 nM
B12: Clone 04 (antibody, V domains shown)
VH: B1 VH with S50A, P60A
VL: B1 VL with K24Q, R53N, V55E, D56T, Y71F, F83I, A100Q, V104L
notes: Variable regions fused to mouse constant regions (chimeric mouse IgG1 mAb) for SPR; also called hROR1 VH_04 / hROR1 VL_04

Kd [8]: 4.08 nM
B13: Hum ROR1_07VH_(G4S)3x_VL_16 (antibody, mouse IgG1, V domains shown)
VH: B1 VH with M34I, S35I, S49A, S50R, Y58R, P60A, R71A, N73T, N76E, L78A
VL: B1 VL with L46V, A100Q
notes: as for B1

Kd [6]: 37.4 nM
Kd [9]: 35 nM
Kd [7]: 35 nM
B14: Clone 05 (antibody, V domains shown)
VH: B1 VH
VL: B1 VL with N34S, Y71F, F83I, A100Q, V104L
notes: Variable regions fused to mouse constant regions (chimeric mouse IgG1 mAb) for SPR; also called hROR1 VH_05 / hROR1 VL_05

Kd [6]: 1.3 nM
Kd [9]: 1.3 nM
Kd [7]: 0.959 nM
B15: Hum_design_14_variant3 (antibody, V domains shown)
VH: B1 VH with S49A, P60A
VL: B1 VL with Y71F, F83I, A100G
notes: Variable regions fused to mouse constant regions (chimeric mouse IgG1 mAb) for SPR; also called hROR1 VH_14-3 / hROR1 VL_14-3

Kd [6]: 0.337 nM
Kd [9]: 0.337 nM
Kd [7]: 0.273 nM
B16: Hum ROR1_05VH_(G4S)3x_VL_16 (antibody, mouse IgG1, V domains shown)
VH: B1 VH
VL: B1 VL with L46V, A100Q
notes: as for B1

Kd [8]: 3.03 nM
B17: Clone 16 (antibody, V domains shown)
VH: B1 VH with S49A, P60D, D61P, S62K, V63F, K64Q, G65D, F67A, R71A, L78A
VL: B1 VL with L46V, A100Q
notes: Variable regions fused to mouse constant regions (chimeric mouse IgG1 mAb) for SPR; also called hROR1 VH_16 / hROR1 VL_16

Kd [6]: 0.408 nM
Kd [9]: 0.408 nM
Kd [7]: 0.284 nM
B18: Hum_design_14_variant4 (antibody, V domains shown)
VH: B1 VH with S49A, S74V, K75R, T77I, N83S, A87S, V92M
VL: B1 VL
notes: Variable regions fused to mouse constant regions (chimeric mouse IgG1 mAb) for SPR; also called hROR1 VH_14-4 / hROR1 VL_14-4

Kd [10]: 70.7 nM
Kd [7]: 23.1 nM
B19: Murine ROR1_v2 binding domain (VL and VH of MurineROR1_v2 (VL-VH)) (antibody, V domains shown)
VH: EVKLVESGGGLVKPGGSLKLSCAASGFTFSSYAMSWVRQIPEKRLEWVASISRGGTTYYPDSVKGRFTISRDNVRNILYLQMSSLRSEDTAMYYCGRYDYDGYYAMDYWGQGTSVTVSS
VL: DVQITQSPSSLYASLGERVTITCKASPDINSYLSWFQQKPGKSPKTLIYRANRLVDGVPSRFSGGGSGQDYSLTINSLEYEDMGIYYCLQYDEFPYTFGGGTKLEMK
notes: also called Murine ROR1_v2 VH; murine ROR1 scFv

Kd [8]: 12.7 nM
B20: Clone 18 (antibody, V domains shown)
VH: B3 VH
VL: B4 VL
notes: Variable regions fused to mouse constant regions (chimeric mouse IgG1 mAb) for SPR; also called hROR1 VH_18 / hROR1 VL_18

From patent publication US20260035432A1 (PRECIGEN, published 2026)
